Data as given in US20040132136A1 (ZymoGenetics, published 2004).

Target: the molecule itself
Test: western blot of BHK conditioned media, reducing against non-reducing conditions
Procedure: Following selection for stable cell transfectants, media isolated from pools was analyzed by western blot under reducing and non-reducing conditions using a Ztgfβ-9 antibody or an anti-EE epitope tag antibody. […] Under non-reducing conditions, Ztgfβ-9 protein migrated as at 49 kDa species. […] C-terminal EE tagged human Ztgfβ-9 expressed in BHK cells was also anti-EE affinity purified and its N-terminal sequence determined.

B1: Human Ztgfβ-9 protein (ligand)
chain: AGAPRAGRRPARPRGCADRPEELLEQLYGRLAAGVLSAFHHTLQLGPREQARNASCPAGGRPADRRFRPPTNLRSVSPWAYRISYDPARYPRYLPEAYCLCRGCLTGLFGEEDVRFRSAPVYMPTVVLRRTPACAGGRSVYTEAYVTIPVGCTCVPEPEKDADSINSSIDKQGAKLLLGPNDAPAGP
notes: Expressed in BHK cells both with and without a C-terminal Glu-Glu tag; It migrated at 29 kDa reduced and 49 kDa non-reduced, read as a disulfide cross-linked homodimer
B1: binds.
